# Assay results published in PMC6520018.
# Where a chain is given by its changes, count along the chain named. Where two headings read alike, the source gives them in different places.
# T1: AtALBA2 (Arabidopsis thaliana, UniProt O22969 1-130)
# T1 sequence: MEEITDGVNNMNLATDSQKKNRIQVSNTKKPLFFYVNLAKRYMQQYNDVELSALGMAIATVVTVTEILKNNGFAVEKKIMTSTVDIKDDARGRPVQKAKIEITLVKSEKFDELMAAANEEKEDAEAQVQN
# T2: AtALBA2 K30E (Arabidopsis thaliana, UniProt O22969 1-130, K30E)
# T2 sequence: T1 sequence with K30E
# B1: artificial R-loop (mixed)
# DNA 1: GCTCGCAAACTACTTAGATGTCATCCGCGAGG
# DNA 2: CCTCGCAAGCGGCGATGATGAGATTCGAAAGCGAGC
# RNA: UCGAAUCUCAUCAUCGCCGC
# B2: dsDNA (EMSA-DNA) (dsDNA)
# DNA 1: TCGAATCTCATCATCGCCGC
# DNA 2: GCGGCGATGATGAGATTCGA
# Legend:
# Experiment in all cases: EMSA
# [1] = molecular target: T1, AtALBA2
# [2] = molecular target: T2, AtALBA2 K30E
# [3] = molecular target: T1, AtALBA2; remark: listed apart in the source
Binder,binding result [1],binding result [2],binding result [3]
B1,binds,–,–
B2,–,no binding,binds
